{"source": "the nanobody polyreactivity screen of Harvey et al. (2022)"}
{"assay": "yeast display, Sf9 membrane polyspecificity reagent, FACS + sequencing; frameworks hold sequencing errors", "summary_of_the_method": "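Genes from sorted yeast were amplified by colony PCR, read by MiSeq 2 × 250 sequencing and filtered on CDR length. These cells carried a synthetic nanobody library in Saccharomyces cerevisiae BJ5465 and were sorted by FACS into low and high (top ~1%) gates on anti-HA and streptavidin fluorescence. Polyreactivity is labelled according to the gate of origin.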"}
{"sequence": "QVQLVESGGGLVQAGGSLRLSCAASGRTFRVYTMGWYRQAPGKERELVAAISSRGGSTYYADSVKGRFTISRDNAKNTVYLQMNSLKPEDTAVYYCAAVSYYPARYGYWGQGTQVTVSS", "polyreactivity (PSR sort gate)": "high polyreactivity"}
{"sequence": "QVQLVESGGGLVQAGGSLRLSCAASGRTFRWYAMGWDRQAPGKERELVAAISQSGGSTYYADSVKGRFTISRDNAKNTVYLQMNSLKPEDTAVYYCNAYPPYGGYAYGRGDYWGQGTQVTVSS", "polyreactivity (PSR sort gate)": "high polyreactivity"}
{"sequence": "QVQLVESGGGLVQAGGSLRLSCAASGRTFRWYAMGWYRQAPGKERELVAAISSSGTRTYYADSVKGRFTISRDNAKNTVYLQMNSLKPEDTAVYYCAATWRVGYDYWGQGTQVTVSS", "polyreactivity (PSR sort gate)": "high polyreactivity"}
{"sequence": "QVQLVESGGGLVQAGGSLRLSCAASGRTFRWYAMGWYRQAPGKERELVASITWSGGSTYYADSVKGRFTISRDNAKNTVYLQMNSLKPEDTAVYYCAARDRRGAYYYWGQGTQVTVSS", "polyreactivity (PSR sort gate)": "high polyreactivity"}
{"sequence": "QVQLVESGGGLVQAGGSLRLSCAASGRTFRWYAMGWYRQAPGKESELVASISRGGSTSYADSVKGRFTISRDNAKNTVYLQMNSLKPEDTAVYYCAAGGFARTISYYWGQGTQVTVSS", "polyreactivity (PSR sort gate)": "high polyreactivity"}
{"sequence": "QVQLVESGGGLVQAGGSLRLSCAASGRTFRWYTMGWYRQAPGKEREFVAAITWSGSSTDYADSVKGRFTISRDNAKNTVYLQMNSLKPEDTAVYYCAAENRRSRDDYWGQGTQVTVSS", "polyreactivity (PSR sort gate)": "high polyreactivity"}
{"sequence": "QVQLVESGGGLVQAGGSLRLSCAASGRTFRYNAMGWYLQAPGKERELVAAITRRDGRTYYADSVKGRFTISRDNAKNTVYLQMNSLKPEDTAVYYCGVEYWVVNAQGYDYWGQGTQVTVSS", "polyreactivity (PSR sort gate)": "high polyreactivity"}
{"sequence": "QVQLVESGGGLVQAGGSLRLSCAASGRTFRYNAMGWYRQAPGKERELVAAINWNGGSTYYADSVKGRFTISRDNAKNTVYLQMNSLKPEDTAVYYCAAYPGHGVTYWDRYYYWGQGTQVTVSS", "polyreactivity (PSR sort gate)": "high polyreactivity"}
{"sequence": "QVQLVESGGGLVQAGGSLRLSCAASGRTFRYNAMGWYRQAPGKERELVAAISRSGGRTYYADSVKGRFTISRDNAKNTVYLQMNSLKPEDTAVYYCAAYYYTAGDSSSRYDYWGQGTQVTVSS", "polyreactivity (PSR sort gate)": "high polyreactivity"}
{"sequence": "QVQLVESGGGLVQAGGSLRLSCAASGRTFRYNAMGWYRQAPGKERELVAVINSNGGSTYYADSVKGRFTISRDNAKNTVYLQMNSLKPEDTAVYYCAADYLRIQEYDYWGQGTQVTVSS", "polyreactivity (PSR sort gate)": "low polyreactivity"}
{"sequence": "QVQLVESGGGLVQAGGSLRLSCAASGRTFRYNDRGWYRQAPGKERELVASISRISGSTYYADSVKGRFTISRDNAKNTVYLQMNSLKAEVTAVFYCAATVKLKQYPYFGFGYWGQGTQVTVSS", "polyreactivity (PSR sort gate)": "high polyreactivity"}
{"sequence": "QVQLVESGGGLVQAGGSLRLSCAASGRTFRYNTMGWYRQAPGKERELVASISSGDRTYYADSVKGRFTISRDNAKNTVYLQMNSLKPEDTAVYYCAKDVGYWYYYWGQGTQVTVSS", "polyreactivity (PSR sort gate)": "high polyreactivity"}
{"sequence": "QVQLVESGGGLVQAGGSLRLSCAASGRTFRYYALGWYRQAPGKERELVASITGSGGSTTYADSVKGRFTISRDNAKNTVYLLMNSLKPEDTAVYYCAVRYPYYSYRAKLGYWGQGTQVTVSS", "polyreactivity (PSR sort gate)": "high polyreactivity"}
{"sequence": "QVQLVESGGGLVQAGGSLRLSCAASGRTFRYYAMGRSRQAPGTERELVAAISRSGGRTNYADSVKGRFTISRDNAKNTVYLQMNSLIPEDTAVDYCAADFRYTFDSWGQGTQVTVSS", "polyreactivity (PSR sort gate)": "high polyreactivity"}
{"sequence": "QVQLVESGGGLVQAGGSLRLSCAASGRTFRYYAMGWYRQAPGKEREFVAAITKRGGSTYYADSVKGRFTISRDNAKNTVYLQMNSLKPEDTAVYYCAAYPAAQFSTFSYDSWGQGTQVTVSS", "polyreactivity (PSR sort gate)": "high polyreactivity"}
{"sequence": "QVQLVESGGGLVQAGGSLRLSCAASGRTFRYYAMGWYRQAPGKERELVAAIDTSSGSTYYADSVKGRFTISRDYAKNTVYLQMNSLKPEDTAVYYCNANWWIPLIYDYWGQGTQVTVSS", "polyreactivity (PSR sort gate)": "low polyreactivity"}
{"sequence": "QVQLVESGGGLVQAGGSLRLSCAASGRTFRYYAMGWYRQAPGKERELVAAISSRGNTYYADSVKGRFTISRDNAKNTVYLQLNSLKPEDTAVYYCAAYVYRVQYDFVYWGQGTQVTVSS", "polyreactivity (PSR sort gate)": "high polyreactivity"}
{"sequence": "QVQLVESGGGLVQAGGSLRLSCAASGRTFRYYAMGWYRQAPGKERELVAAITGSGGSTYYADSVKGRFTISRDTAKNTVYLQMNSLKPEDTAVYYCATRWALRWRGGYWGQGTQVTVSS", "polyreactivity (PSR sort gate)": "high polyreactivity"}
{"sequence": "QVQLVESGGGLVQAGGSLRLSCAASGRTFRYYAMGWYRQAPGKERELVAAITVTVTSTFYADSVKGRFTISRDNAKNTVYLQMNSLKPEDTAVYYCAKVDRQYPGQYYYWGQGTQVTVSS", "polyreactivity (PSR sort gate)": "low polyreactivity"}
{"sequence": "QVQLVESGGGLVQAGGSLRLSCAASGRTFRYYAMGWYRQAPGKERELVAAITWSVGSTYYADSVKGRFTISRDNAKNTVYLQMNSRKPEDTAVYYCAADRVRGGYRTYYWVVHFDYWGQGTQVTVSS", "polyreactivity (PSR sort gate)": "high polyreactivity"}
{"sequence": "QVQLVESGGGLVQAGGSLRLSCAASGRTFRYYAMGWYRQAPGKERELVARISWRGDSTRYADSVKGRFTISRDNAKNTVYVQMNSLKPEDTAVYYCAADTRFLVGPDKYGYWGQGTQVTESS", "polyreactivity (PSR sort gate)": "high polyreactivity"}
{"sequence": "QVQLVESGGGLVQAGGSLRLSCAASGRTFRYYAMGWYRQAPGKERELVATSTGSGGSTYYADSVKGRFTISRDNSKNTVYLQMNSLKPEDTAVYYCNARKVRYPYRWYDYWGQGTQVTVSS", "polyreactivity (PSR sort gate)": "high polyreactivity"}
{"sequence": "QVQLVESGGGLVQAGGSLRLSCAASGRTFRYYAMGWYRQARGKERELVAAISKTGGSTYYADSVKGRFTISRDNAKNTVYLQMNSQKPEDTAVYYCAAQSGWGYSTFYYWGQGTQVTVSS", "polyreactivity (PSR sort gate)": "high polyreactivity"}
{"sequence": "QVQLVESGGGLVQAGGSLRLSCAASGRTFRYYSMGWYRQAPGKERELVAAITGSGARTYYADSVKGRFTISRDNAKNTVYLQMNSLKPEDTAVYYCAADSLFYDDRYDYWGQGTQVTVSS", "polyreactivity (PSR sort gate)": "high polyreactivity"}
{"sequence": "QVQLVESGGGLVQAGGSLRLSCAASGRTFRYYTMGWYRQAPGKEREFVAAISSTGGTYYADSVKGRFTISRDNAKNTVYLLMNSLNPEDTAVYYCAATFIQVVVNVQLYDYDYWGQGTQVTVSS", "polyreactivity (PSR sort gate)": "low polyreactivity"}
{"sequence": "QVQLVESGGGLVQAGGSLRLSCAASGRTFRYYTMGWYRQAPGKEREFVAAISSTGGTYYADSVKGRFTISRDNAKNTVYLQMNRLKPEDSAVYYCAATFIQVVVNVQLYDYDYWGQGTQVTVSS", "polyreactivity (PSR sort gate)": "low polyreactivity"}
{"sequence": "QVQLVESGGGLVQAGGSLRLSCAASGRTFRYYTMGWYRQAPGKERELVAAITRNGGRTYYADSVKGRFTISRDNAKNTVDLQMNSLKPEDPAVYYCAPGTYDGGYHYDYWGQGTQVTVSS", "polyreactivity (PSR sort gate)": "high polyreactivity"}
{"sequence": "QVQLVESGGGLVQAGGSLRLSCAASGRTFRYYTMGWYRQAPGKERQFVAAISSTGGTYYADSVKGRFTISRDNAKNTVYLQMNSLKPADTAVYYCAATFIQVVVNVQLYDYDYWGQGTQVTVSS", "polyreactivity (PSR sort gate)": "low polyreactivity"}
{"sequence": "QVQLVESGGGLVQAGGSLRLSCAASGRTFRYYVMGWYRPAPGKERELVASITSNGDSTYYADSVKGRFTISRDNAKNTVFLQWKSLKPEDTAVDYCAVRWRDYRGSYRGFEYWGQGSQVTVSS", "polyreactivity (PSR sort gate)": "high polyreactivity"}
{"sequence": "QVQLVESGGGLVQAGGSLRLSCAASGRTFRYYVMGWYRQAPGKERELVAGISGSGGNTYYADSVKGRFTISRDNAKNTVYLQMNSLKPEDTAVYYCAARQRGSVGVPYNSWGQGTQVTVSW", "polyreactivity (PSR sort gate)": "high polyreactivity"}
{"sequence": "QVQLVESGGGLVQAGGSLRLSCAASGRTFSANAMGWYRQAPGKDRELVAANRRTGGRTYYADSVKGRFTISRDNAKNTDYLQMNSLKPEDTAVYYCKAVNKPYTREYGYDYWGQGTQGTVSS", "polyreactivity (PSR sort gate)": "high polyreactivity"}
{"sequence": "QVQLVESGGGLVQAGGSLRLSCAASGRTFSANAMGWYRQAPGKERELVATISSGGRTNYADSVKGRFTISRDNAKNTVYLQMNSLKPEDTAVYYCAKRGPYNRWYGRYDYWGQGTQVTVSS", "polyreactivity (PSR sort gate)": "low polyreactivity"}
{"sequence": "QVQLVESGGGLVQAGGSLRLSCAASGRTFSAYAMGWYRQAPGKEMELVARITSVDSTNYADSVKGRFTISRDNAKNTVYLQMNSLKPEDTAVYYCNATFGYPFVDYDDYWGQGTQVTVSS", "polyreactivity (PSR sort gate)": "low polyreactivity"}
{"sequence": "QVQLVESGGGLVQAGGSLRLSCAASGRTFSAYAMGWYRQAPGKERELVARITSVDSTNYADSVKGRFTISRDNAKNSVYLQMNSLKPEDTAVYDCNATFGYPFVDYDDYWGQGTQVTVSS", "polyreactivity (PSR sort gate)": "low polyreactivity"}
{"sequence": "QVQLVESGGGLVQAGGSLRLSCAASGRTFSENAMGWYRQAPGKERELVAAISGSGGRTYYADSVKGRFTISRDNAKNTVYLQMNILKPEDTAVYFCGKVTRYGSTYDYWGQGTQVTVSS", "polyreactivity (PSR sort gate)": "high polyreactivity"}
{"sequence": "QVQLVESGGGLVQAGGSLRLSCAASGRTFSFYAMGWYRQAPGKERELVAAISSGGGRTYYADSVKGRFTISRDNAKNTVYLQMHSLKPEDTAVYYCAAYRAYSGEFDYWGQGTQVTVSS", "polyreactivity (PSR sort gate)": "high polyreactivity"}
{"sequence": "QVQLVESGGGLVQAGGSLRLSCAASGRTFSGNAMGWYRQAPGKERELVAAITSGSSTYYADSVKGRFTISRDNAKNTVYLQMNSLKPEDTAVYYCAARSVYGSSFLSYGYWGQGTQVTVSS", "polyreactivity (PSR sort gate)": "high polyreactivity"}
{"sequence": "QVQLVESGGGLVQAGGSLRLSCAASGRTFSGNTMGWYRQAPGKERELVAAITGRGGSTYYADSVKGRFTISRDNANNTVYLQMNSLKPEDTAVYYCAALRYTFAGRFDYWGQGTQVTVSS", "polyreactivity (PSR sort gate)": "high polyreactivity"}
{"sequence": "QVQLVESGGGLVQAGGSLRLSCAASGRTFSGYAMGWYRQAPGKERELVAAITNRGGTYYADSVKGRFTISRDNAKNTVYVQMNSLKPEDTAVYSCAAYKYYARWVRGYDSWGQGTQVTVSS", "polyreactivity (PSR sort gate)": "high polyreactivity"}
{"sequence": "QVQLVESGGGLVQAGGSLRLSCAASGRTFSGYTMGWYRQAPGKERELVAGISRSGGRTYYADSVKGRFTISRDNAKKTVYLQMNSLKPEDTAVYYCATPYRRLNTWIYDYWGQGTQVTVSS", "polyreactivity (PSR sort gate)": "high polyreactivity"}
{"sequence": "QVQLVESGGGLVQAGGSLRLSCAASGRTFSGYVMGWYRQAPGKERELVATINGSGASTYYADSVKGRFTISRDNAKNTVYLQRKSLKPEDSAVYYCAAKRYRPKYEYYYWGQGTQVTVSS", "polyreactivity (PSR sort gate)": "high polyreactivity"}
{"sequence": "QVQLVESGGGLVQAGGSLRLSCAASGRTFSHNAMGWYRQAPGKERELVAAISRGGGTNYADSVKGRFTISRDNAKNTVYLQMNSLKPEDTAVYYCAAAGYDSNGRYYYWGQGTQVTVSS", "polyreactivity (PSR sort gate)": "high polyreactivity"}
{"sequence": "QVQLVESGGGLVQAGGSLRLSCAASGRTFSHNTMGWYRQAPGKERELVAAITGSGASTYYADSVKGRFTISRDNAKNTVYLQMNSLKPEDTAVYYCAKVSRQSWYEYDSWGQVTQVTVSS", "polyreactivity (PSR sort gate)": "low polyreactivity"}
